Assay results published in patent US20180362645A1 (Amgen, published 2018).

Columns and labels:
[1] = target: T1, human pituitary adenylate cyclase-activating polypeptide type I receptor (human, UniProt P41586 21-468); assay: cell-based or functional assay
T1 sequence (looked up): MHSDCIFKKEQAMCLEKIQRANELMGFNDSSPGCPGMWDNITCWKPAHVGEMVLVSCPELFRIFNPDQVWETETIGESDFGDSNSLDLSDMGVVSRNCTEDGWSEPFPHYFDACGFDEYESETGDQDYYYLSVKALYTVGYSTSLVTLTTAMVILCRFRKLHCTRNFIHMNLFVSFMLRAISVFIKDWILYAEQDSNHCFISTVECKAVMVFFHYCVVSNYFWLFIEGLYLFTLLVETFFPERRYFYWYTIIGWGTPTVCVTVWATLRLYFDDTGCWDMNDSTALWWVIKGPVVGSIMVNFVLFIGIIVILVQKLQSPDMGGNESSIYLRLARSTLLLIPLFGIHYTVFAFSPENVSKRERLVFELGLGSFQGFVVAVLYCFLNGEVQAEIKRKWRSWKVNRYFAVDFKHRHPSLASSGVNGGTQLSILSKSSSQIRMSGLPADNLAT

cyno PAC1 = cyno PAC1 (cynomolgus); assay: cell-based or functional assay
rat PAC1 = target: T2, rat PAC1 (rat, UniProt P32215 20-523); assay: cell-based or functional assay
T2 sequence (looked up): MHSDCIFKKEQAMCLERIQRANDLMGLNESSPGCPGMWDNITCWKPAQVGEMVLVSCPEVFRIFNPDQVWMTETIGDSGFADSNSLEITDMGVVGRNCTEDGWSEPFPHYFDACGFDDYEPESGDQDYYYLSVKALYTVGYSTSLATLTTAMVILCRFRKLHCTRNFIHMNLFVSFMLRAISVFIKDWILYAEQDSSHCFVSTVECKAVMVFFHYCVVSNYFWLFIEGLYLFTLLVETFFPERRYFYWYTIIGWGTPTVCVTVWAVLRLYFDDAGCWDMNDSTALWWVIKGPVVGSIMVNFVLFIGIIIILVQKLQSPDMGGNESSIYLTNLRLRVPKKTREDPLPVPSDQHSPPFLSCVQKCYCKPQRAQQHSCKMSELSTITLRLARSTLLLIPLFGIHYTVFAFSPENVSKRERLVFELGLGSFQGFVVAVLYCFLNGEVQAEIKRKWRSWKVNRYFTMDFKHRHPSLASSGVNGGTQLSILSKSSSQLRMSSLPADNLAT

human VPAC1 = target: T3, human VPAC1 (human, UniProt P32241 31-457); assay: cell-based or functional assay
T3 sequence (looked up): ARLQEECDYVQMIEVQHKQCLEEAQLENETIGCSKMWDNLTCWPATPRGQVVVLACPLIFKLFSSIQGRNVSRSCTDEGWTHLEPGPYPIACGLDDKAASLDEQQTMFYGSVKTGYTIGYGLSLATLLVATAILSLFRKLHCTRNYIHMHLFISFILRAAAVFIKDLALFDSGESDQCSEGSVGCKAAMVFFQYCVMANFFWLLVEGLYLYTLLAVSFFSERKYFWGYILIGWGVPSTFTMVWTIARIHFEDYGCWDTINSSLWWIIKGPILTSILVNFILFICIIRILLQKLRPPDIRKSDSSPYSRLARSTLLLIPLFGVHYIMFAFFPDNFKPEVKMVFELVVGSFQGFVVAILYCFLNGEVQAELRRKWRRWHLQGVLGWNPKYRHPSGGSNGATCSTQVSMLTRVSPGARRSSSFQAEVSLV

human VPAC2 = target: T4, human VPAC2 (human, UniProt P41587 24-438); assay: cell-based or functional assay
T4 sequence (looked up): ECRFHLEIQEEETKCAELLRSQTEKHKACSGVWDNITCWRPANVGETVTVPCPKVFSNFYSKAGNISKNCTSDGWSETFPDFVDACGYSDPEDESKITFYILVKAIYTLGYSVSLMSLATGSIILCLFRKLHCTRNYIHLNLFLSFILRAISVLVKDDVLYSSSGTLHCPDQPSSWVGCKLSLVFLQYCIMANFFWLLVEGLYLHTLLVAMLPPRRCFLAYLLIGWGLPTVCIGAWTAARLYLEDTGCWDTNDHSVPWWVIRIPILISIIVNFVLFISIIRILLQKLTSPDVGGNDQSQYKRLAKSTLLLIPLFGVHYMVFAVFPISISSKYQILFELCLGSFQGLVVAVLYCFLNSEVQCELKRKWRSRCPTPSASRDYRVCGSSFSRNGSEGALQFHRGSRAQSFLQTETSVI

[2] = target: T1, human pituitary adenylate …; assay: KinExA, CHOK1/huPac1 whole cells
Experimental: Binding of anti-Pac1 antibody with CHOK1/huPac1 cells were tested on KinExA. […] Samples containing anti-Pac1 antibody and whole cells were incubated with rotation at room temperature for 4 hours before 5-minute 220-g centrifugation at 4° C. to separate the whole cells and anti-Pac1 antibody-cell complexes from unbound anti-Pac1 antibody. The supernatants containing free anti-Pac1 antibody were filtered through 0.22 μm filter before loading to the goat-anti-huFc-coated beads on KinExA. […] The binding signal is proportional to the concentration of free anti-Pac1 antibody in solution at each cell density. Equilibrium dissociation constant (KD) was estimated by n-curve analysis in KinExA™ Pro software (Sapidyne Instruments, Inc., Boise, Id.).

[3] = target: T1, human pituitary adenylate …; assay: radioligand competition, hPAC1 CHO membranes; competitor 125I-01B
Experimental: (§1) The plates were incubated at room temperature for 2 hours with shaking at 60 rpm, and then the contents of each well were filtered over 0.5% polyethyleneimine (PEI)-treated (for at least two hours) GF/C 96-well filter plates. The GF/C filter plates were washed five times with ice-cold 50 mM Tris, pH 7.5 and dried in an oven at 55° C. for 1 hour. The bottoms of the GF/C plates were then sealed. 40 μl Microscint™ 20 was added to each well, the tops of the GF/C plates were sealed with TopSeal™-A (a press-on adhesive sealing film), and the GF/C plates were counted with TopCount NXT (Packard). The data were analyzed using Prizm (GraphPad Software Inc.)

[4] = target: T1, human pituitary adenylate …; assay: radioligand competition, hPAC1 CHO membranes; competitor 125I-14B
Experimental: as §1

[5] = target: T1, human pituitary adenylate …; assay: radioligand competition, hPAC1 CHO membranes; competitor 125I-26B
Experimental: as §1

[6] = target: T1, human pituitary adenylate …; assay: radioligand competition, hPAC1 CHO membranes; competitor 125I-29B
Experimental: as §1

[7] = target: T1, human pituitary adenylate …; assay: radioligand competition, hPAC1 CHO membranes; competitor 125I-39B
Experimental: as §1

[8] = target: T1, human pituitary adenylate …; assay: radioligand competition, hPAC1 CHO membranes; competitor 125I-14A
Experimental: as §1

[9] = target: T1, human pituitary adenylate …; assay: radioligand competition, hPAC1 CHO membranes; competitor 125I-26A
Experimental: as §1

[10] = target: T1, human pituitary adenylate …; assay: radioligand competition, hPAC1 CHO membranes; competitor 125I-28A
Experimental: as §1

[11] = target: T1, human pituitary adenylate …; assay: radioligand competition, hPAC1 CHO membranes; competitor 125I-29A
Experimental: as §1

[12] = target: T1, human pituitary adenylate …; assay: radioligand competition, hPAC1 CHO membranes; competitor 125I-39A
Experimental: as §1

[13] = target: T1, human pituitary adenylate …; assay: radioligand competition, hPAC1 CHO membranes; competitor 125I-01B; 125I-01B as tracer
Experimental: as §1

B1: 29B (antibody, human IgG1, kappa, N297G)
heavy: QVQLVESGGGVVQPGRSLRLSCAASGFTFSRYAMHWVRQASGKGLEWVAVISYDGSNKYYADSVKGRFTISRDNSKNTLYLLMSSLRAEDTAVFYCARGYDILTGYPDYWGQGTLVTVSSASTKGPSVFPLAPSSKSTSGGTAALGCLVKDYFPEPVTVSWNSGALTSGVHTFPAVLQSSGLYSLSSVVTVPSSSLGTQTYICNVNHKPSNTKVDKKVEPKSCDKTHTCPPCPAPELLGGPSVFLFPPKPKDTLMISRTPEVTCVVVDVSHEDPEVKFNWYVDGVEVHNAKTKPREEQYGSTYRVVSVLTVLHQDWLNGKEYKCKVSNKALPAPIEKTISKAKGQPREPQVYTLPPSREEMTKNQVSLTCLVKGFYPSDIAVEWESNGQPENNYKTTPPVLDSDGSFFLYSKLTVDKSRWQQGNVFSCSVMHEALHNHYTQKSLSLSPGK
light: DIQLTQSPSFLSASVGDRVTITCRASQSIGRSLHWYQQKPGKAPKLLFKYASQSLSGVPSRFSGSGSGTEFTLTISSLQPEDFATYYCHQSSRLPFTFGPGTKVDIKRTVAAPSVFIFPPSDEQLKSGTASVVCLLNNFYPREAKVQWKVDNALQSGNSQESVTEQDSKDSTYSLSSTLTLSKADYEKHKVYACEVTHQGLSSPVTKSFNRGEC
notes: "B" suffix: aglycosylated IgG1 variant (N297G); also called LC-11 and HC-40
hPAC1 IC50 (cAMP assay) [1]: 0.9 nM | cyno PAC1 IC50 (cAMP assay) (cyno PAC1): 0.5 nM | rat PAC1 IC50 (cAMP assay) (rat PAC1): 50.7 nM | hVPAC1 IC50 (cAMP assay) (human VPAC1): > 10000 nM | hVPAC2 IC50 (cAMP assay) (human VPAC2): > 10000 nM | Kd [2]: 0.015 nM | Ki [3]: 0.14 nM | Ki [4]: 0.08 nM | Ki [5]: 0.07 nM | Ki [6]: 0.08 nM | Ki [7]: 0.05 nM

B2: PACAP 6-38 (peptide, UniProt P18509 137-169, looked up)
peptide: FTDSYSRYRKQMAVKKYLAAVLGKRYKQRVKNK
notes: domain: PACAP 6-38
Ki [8]: 4.08 nM | Ki [4]: 7.74 nM | Ki [9]: 2.51 nM | Ki [5]: 6.26 nM | Ki [10]: 2.06 nM | Ki [11]: 4.05 nM | Ki [6]: 2.39 nM | Ki [12]: 2.78 nM | Ki [7]: 4.91 nM | Ki [13]: 4.98 nM
